Results as given in the DeepSol protein solubility set.

Experiment: soluble on expression in E. coli; label from the status in PepcDB or PDB records

Sequence | soluble on expression in E. coli
MGSDKIHHHHHHMNSGGYMAIPPGAILPESLPEFKIFMRNREGKYVLWAADGNRVTVAQLAKLSESGVQDVFVDIEESFKYEQYLEANLGKILDNQGITVDRKAAIFSRVSTNVVKAAFETSLKSGAMGMETLQRTQKMIENAMKFITDSNSLPALAKMIGHDYETYEHAMKVTWWTVAFISENPEILTYCQKDEISDAEQISETLRSCGVCALLHDIGKAYVPQEVINKNGPLTEIEWEIMKRHPLSGLAMLLDSELPAFVKKAIVQHHEDFDGGGYPMNLEGTNITVLARVLRIMDVFDAMTSRRPYKDPLSPMKVIQIMIGTPSHPEDNAEPAQDPRDRGMGRCFDHELLGKFIIFIGNVKLD | not soluble
MDTIWELDFYSRPLVDENNKKIWELLVCDRQQQFQFSKTCAGAEANARWLAAALEEAMDQWRQQLGLAEGVQPQRVRFFRRAMSSIITRGGEAAGLVMVPSRRTFALYDWLRDRATNFYPTLPNYQADLATPPQLPPPAPQPLPPALQGDRWQLSGLPLGEIKTAAEWELPFGEVPPLPFLTLNDDTLLPGLIIYSQRALPLAGWLSGLEPASLSFEETPQPLLILETGASDRWILIRGRNPQIQKELAAFKDACTQSQGLHFIAVKEQPTQETLQGFWLLQQTPELLEHHHHHH | soluble
MTAHPQEDHYKYKKVISIGVVSELTGLSQRQIRYYEERKLVFPDRSRGIRKYSFADVEQLMKIANQREEGVSTWEIRQEMTKELRERMLKGQMNAHFRRRS | not soluble
MGSDKIHHHHHHMSFFKTPLIGLKADSFRHPLDLEATKTLKQIPGIDMLVRNWLGPMAEQVFYVENIASSILVGEKQLPDLYKLLLDACEILDIEPPQLYVRQHPAPNAYTFAVRGKQPFVVLHTSLIDILTPEEIQAVIAHELGHLKCDHSVYLTPVNLLILAAAIVPNVGTFVAQAIQAQLLEWVRCAEFTCDRAALLATQDPKVVMSVLMKLAGGSPTLAPQLNLDAFVAQARAYDDISKTELGEMVKTARTAQLTHPVPVLRAREIDRWASSTEYQSLIQSHGLKSTSKEVAPKGGWRNW | not soluble
GMPENTAMAALLPEESLFFRELVKQWRAQDSYGTWEKKSDMELLAPYVLDKEQRRAIPIIGDPDPEILWRVELFYNAVGLATERASGVMVSPMMKMSHEGFGRMVLIAGRLIVVNKQLRDVHRFGFPSMEKLAEEGDKLVAGALEMIEKFPEVARF | soluble
MSTKMTPPVEKNEFIDVVFEDLTHDGAGVAKVKGYPIFVKNGLPGEEAQIKIIKVKKNFAFGRLMKLHTESPYRKDAECPVYNQCGGCQLQHLTYEGQLQAKEKQVRDVMQRIGGLADVPVHPVLGMKNPWVYRNKAQVPIGEREGGLVAGFYRQGTHDIINMESCLIQAEENDTLIQEVKRICEKHGITAYNEERNKGTLRHVMARYGQVTGEIMLVFITRTAELPNKKAIIEEIAAKFPEVKSIVQNVNTKRTNVIFGDKTTVLYGSEYIYDFIGDIKFAISARSFYQVNPEQTKVLYDKTLEYAKLNGNETVIDAYCGIGSISLFLAQKAKKVYGVEIVPEAIEDANRNAALNNMTNAEFGVGEAEVVIPKWYKEGVIADTMVVDPPRKGCDEALLNTIIDMKPNRVVYVSCNPATLARDLKVLEEGGYKTQEVQPVDMFPHTTHVECVAWLKLV | not soluble
MTKQREKLIEVKNVKQHFDVSGGVVKAVNDISFDIYRGETFGLVGESGCGKSTTGRTIIRLYDATAGEVLFDGENVHGKKSRAELKKFNRKMQMIFQDPYASLNPRMTVGDIIAEGIDIHGLAKNKKERMDRVHELLNTVGLNKEHANRFPHEFSGGQRQRIGIARALAVEPEFIIADEPISALDVSIQAQVVNLLKKLQKEKGLTYLFIAHDLSMVKYISDRIGVMYRGQIVELTTSDELYANPIHPYTKSLLSAIPLPDPDYERNRKRIVYDPSQHNYGSEEPTMREIRPGHFVLCSEAEYKKYKEIYQ | not soluble
EEQPRLFELLGQPGYKATWHAMFKGESDVPKWVSDASGPSSPSTSLSLEGQPYVLANSCKPHDCGNNRLLVAFRGDKSAAYGLQVSLPDEPAEVMQTPSKYATYRWYGEPSRQVRELLMKQLESDPNWKLEHHHHHH | soluble
MSLFPGDIEELARRIITDFTPLGLMVSTAESCTGGLIAGALTEIAGSSAVVDRGFVTYTNDAKRDMLGVGTETLTTFGAVSRQTALQMAHGALYRSRANFAVAVTGIAGPGGGSAEKPVGLVHLATKARNGNVLHHEMRYGDIGRTEIRLATVRTALEMLIALNQAGSV | soluble
MTTAKPNTVEQFEHVIDICREVFQKKLHDYGASWRVMRPSSLTDQLYIKANRIRNIQMKGLSKVDEGVESEFIGVVNYGVIALIQLELGVADTPKMETEEALRLYDLKIREAMSLMLDKNHDYGEAWRQMRVSSFADLILTKVFRTKEIEDLGGDTYISEGVDANYMDMINYAIFALIQLNG | not soluble
RALEDEDMRKVFSRLSKSSTIPSDLRRTKELFILMFLLRGLPFVDLAYLRKSDLRGNVITYRRRKTGRSLSVTLTPESMLLLEKHISRDLSSPYLFPILHSIEGSQEAYREYQLALRSFNQHLELLGQWLGLESKLSSYTARHTWATTAYYCEIHPGIISEAMGHSSITVTETYLKPFRNRKIDEAN | not soluble
MGSDKIHHHHHHMNVFATLKTVFFGSKFLSSPVPIDGTPRRDLVSALNGLMPLCRTIPGVRLALDIREGQVVLALNWTPRTDGNAPTGSYHYIVSDEDGVREMADSQVLLTENGKDNLPGSMDDSRTHPTVSTEKTEKDSAHLKKDVQKKAGPTSPEDTGKKAKSHTLMQEVTAFLTSRYRFRFNVLTEETEVASVENNIPDTHLRYAKVDERWMNSLSLEAIETGIDCWDRDIQRFVRSRRISEYHPFTAYFEQLPEWDGTDRVSALARRVSDDPVWVNGFHRWMLGLSAQWMQLNPDNNRANSVAPLLVSSRQGLGKSTFCRLLMPDRLKSYYTESYDLSSPTSAEAKLAAYGLINLDEFDKLGASKMPLLKNLMQASALNIRKAYKHSASSLPRIASFIGTSNREDLLVDRTGSRRFLCVSLKHAIDCTTSVEHKQLYAQLKTELLSGERSWFNKEEEQTIQQHNALFYKHVPEEEVFRLCFRFATEEDNPQEVLSLSATQLFERMKAAHPSIMRGMTAYSLSRILPQLGERVHTTKGNVYRVVEC | not soluble
MGSDKIHHHHHHMRNLDITTLRSFVAVADTGGVTRAASFLHLTQSAVSMQLKRLEEMLGVELLDRSGRNIGLTSAGEQLLGFARKMLSLNDEIITRLTDQAFEGEVTLGVPHDVVHPVIPMVMQRFNVQFPRVKVNLCTSNTRDLKMDFAQGRFDLIVTTETTASEGGEVIHQMPLRWIGALGGQTWRQRPLRIGFCRNCIFRGLATAALDDAGIPWEMAVDSESDRTVEATVSADLAVGVLLEGTQPAHQQVIDHGGSLPQLPVQHINLYGAERSRAQYVDHLASLIRQGFAGLSQPGLRAVGTEMVSAPVQLGVV | not soluble
LKISTKGRYGLEAIVDLAIHSSEGRVSLKSIAERCGMSEAYILQIFLILRRAGIVESIRGAQGGYVLARDPSQITVGEILTVLEGPLAPVPCIAEKTKRSKSSCERYENCTARSFWEKIMNTLNDVANSITVEDLVKCYNSTVSQNTELEYYI | soluble
MLKLSKIVLISSLLVLVQQISYAKIGGFELIVNVPIGAGITLVNKNVSVAGNPKLGGNFQIGLEANIGYMFQIMDNMGVSLLGSLGYDFTGFSYSKNNNTENYKNTVHDIYRFLS | not soluble
MMNVPEGFQPLFRSSPLLDLLGPFFCRQDAQRQLVVALRIDEKHCNHGGTAHGGLLSTLADVGLGYAMAFSREPPQPMVTVGLRLDFCGVARVGDWLEVHTRVDKLGQRMAFASARLHSGERLVASASGVFHLP | not soluble
MAMSKVKSITRESWILSTFPEWGSWLNEEIEQEQVAPGTFAMWWLGCTGIWLKSEGGTNVCVDFWCGTGKQSHGNPLMKQGHQMQRMAGVKKLQPNLRTTPFVLDPFAIRQIDAVLATHDHNDHIDVNVAAAVMQNCADDVPFIGPKTCVDLWIGWGVPKERCIVVKPGDVVKVKDIEIHALDAFDRTALITLPADQKAAGVLPDGMDDRAVNYLFKTPGGSLYHSGDSHYSNYYAKHGNEHQIDVALGSYGENPRGITDKMTSADMLRMGEALNAKVVIPFHHDIWSNFQADPQEIRVLWEIKKDRLKYGFKPFIWQVGGKFTWPLDKDNFEYHYPRGFDDCFTIEPDLPFKSFL | not soluble
MISDIRKDAEVRMEKCVEAFKTQISKVRTGRASPSLLDGIVVEYYGTPTPLRQLASVTVEDSRTLKINVFDRSMGPAVEKAIMASDLGLNPSSAGTDIRVPLPPLTEERRKDLTKIVRGEAEQARVAVRNVRRDANDKVKALLKDKAISEDDDRRSQEEVQKMTDAAIKKVDAALADKEAELMQF | not soluble
MTENLLAERHALRWVFLYEFPQICNCNEARRNMCAVLGKNSVTYNTMKFWFEKFTKKNYDLDDKPR | soluble
MGHHHHHHSHMKMEHQNKRSPLHAAAEAGHVDICHMLVQAGANIDTCSEDQRTPLMEAAENNHLEAVKYLIKAGALVDPKDAEGSTCLHLAAKKGHYEVVQYLLSNGQMDVNCQDDGGWTPMIWATEYKHVDLVKLLLSKGSDINIRDNEENICLHWAAFSGCVDIAEILLAAKCDLHAVNIHGDSPLHIAARENRYDCVVLFLSRDSDVTLKNKEGETPLQCASLNSQV | not soluble
MATLDGINVKDIVKVERTSVHSHITGLGLNDRLEAEYVSGGMVGQVAARQAAGLIVKMIQEGKIAGRALLVTGEPGAGKTAIAIAISKELGEDTPFVSIVASEIYSNEINKTEALTQAFRRALGIQIKEETEVLEGEVISLEVDRSANGMGPKVGKLTMRTTDMETIYDLGSKMVDACLKEKVMPGDVIQVDKASGRVTRLGRSFNRSHDYDAMGPKVKLVQCPDGEIQKRRETVHTVCLHDIDVINSRTQGYVALFSGDTGEIKAEVRDQINKKVLEWREEGKAKFVPGVLFIDEAHMLDIECFSFLNRAIEGELSPLIIMATNRLIEKVRGTDVESAHGIPSDFLDRMLIINAIPYTKEDTAKILSIRCDEEGVKLQPTALDLLVKLQEATSLRYCIHLIAASEVIRIRSKAEIVTTDHIGSAYRLFFDTKRSEKILTEESAGFLQ | not soluble
MSADFEQLVAQFERFQARMTRVEQQFAGVDDMRQRLAELEVAATSADRSVTVVAGPSGAILDIRLTEQAVRKPAHALAGELMSTLRKAVAEAARRQAGIVDGALGEAFGDDLDLTEQVLETQAELFGMSKEELRAVTAEEATTAPQQGPPAPPARPTPPSPGQPQGGPVPGRPEPGQARTGGPQPGRPHSGRQQSGQPQPGRPQSGQPQPGRPQSGQPQPGKSQPGTSQPGQARPGQSGPAQRPQGGEPQQEDFSERNFMKDDWKQSGSKAQPPGPGGKQDDRFLNLYDDEDGR | not soluble
MGSDKIHHHHHHMDQSLFQNGNFQPLASRMRPQTLDEFVGQTHLLGKDKVLSNLIEHDEISSMIFWGPPGVGKTTLARIIARRTKAQFVTFSAVTSGIKEIKQVMKEAEQNRELGQKTIVFVDEIHRFNKAQQDAFLPYVERGSIILIGATTENPSFEVNAALLSRTRVFVLHGLTSAELVDLLQRALKDPRGYGLQKVKIGKKLLAQIADFANGDARIALNTLEMAVTNAETKGGVITVTQADVAQLLTKKALLYDKNGEEHYNLISALHKSMRNSDVDAAIYWLARMLEAGEDPLYVARRLVRFASEDIGMADSRALEITIAVYQACQFIGMPECTVHLTHAVTYLALAPKSNALYTAYEGAKKDATETLAEPVPLQIRNGVTDLMQDLGYGKDYQYAHNTKDKLTTMQTMPDNLIGKTYYHPTTQGSEAKVKERLEQIKAWHAQHPDPDSPKTKKKS | not soluble
